Data on one substance can be found in publication PMC12420816 (Nature Communications, 2025).

The test addresses SARS-CoV-2 nsp16 with uncleaved His6-tag (SARS-CoV-2) (UniProt P0DTD1). The experiment in a line: native MS.

“SARS-CoV-2 nsp7-11 polyprotein, tag-free with native (authentic) termini (domain or fragment)” came in with a percent of signal as complex of 2%.
